# Experimental data published in article PMC5779228.
# Target: His-tagged dimeric ϕO11 Dut (S. aureus phage ϕO11)
# Test: crystal structure; ϕO11 Dut (10 mg/ml) with 0.5 mM dUPNPP and 5 mM MgCl2; sitting drop at 21°C; 0.2 M magnesium chloride, 0.1 M Tris-HCl pH 8.5, 20% PEG 8000; 2.1 Å
substance,measurement,value
His-tagged dimeric ϕO11 Dut (enzyme),stoichiometry N,2
